Measurements from paper PMC5148741.

How the values were obtained:
Test in all cases: fluorescence polarisation
[1] = target: RRE of TbtF (residues 1–85)
TbtF = target: TbtF
MBP-TbtD = target: MBP-TbtD

Row | Kd [1] [µM] | IC50 (TbtF) [µM] | IC50 (MBP-TbtD) [µM] | Substance
1 | 0.1 | – | – | synthetic TbtA leader peptide derivatized with fluorescein isothiocyanate (FITC) at the N-terminus
2 | – | 0.85 | 2.66 | TbtA P(−28)A (peptide)
3 | – | 2.75 | 1.09 | TbtA M(−27)A (peptide)
